For the assay, the target named is GST–α-adaptin ear (UniProt P17427). Description: pull-down.

Two substances from paper PMC2575790 can be followed below.

GST–α-adaptin ear, sequence (P17427 whole entry): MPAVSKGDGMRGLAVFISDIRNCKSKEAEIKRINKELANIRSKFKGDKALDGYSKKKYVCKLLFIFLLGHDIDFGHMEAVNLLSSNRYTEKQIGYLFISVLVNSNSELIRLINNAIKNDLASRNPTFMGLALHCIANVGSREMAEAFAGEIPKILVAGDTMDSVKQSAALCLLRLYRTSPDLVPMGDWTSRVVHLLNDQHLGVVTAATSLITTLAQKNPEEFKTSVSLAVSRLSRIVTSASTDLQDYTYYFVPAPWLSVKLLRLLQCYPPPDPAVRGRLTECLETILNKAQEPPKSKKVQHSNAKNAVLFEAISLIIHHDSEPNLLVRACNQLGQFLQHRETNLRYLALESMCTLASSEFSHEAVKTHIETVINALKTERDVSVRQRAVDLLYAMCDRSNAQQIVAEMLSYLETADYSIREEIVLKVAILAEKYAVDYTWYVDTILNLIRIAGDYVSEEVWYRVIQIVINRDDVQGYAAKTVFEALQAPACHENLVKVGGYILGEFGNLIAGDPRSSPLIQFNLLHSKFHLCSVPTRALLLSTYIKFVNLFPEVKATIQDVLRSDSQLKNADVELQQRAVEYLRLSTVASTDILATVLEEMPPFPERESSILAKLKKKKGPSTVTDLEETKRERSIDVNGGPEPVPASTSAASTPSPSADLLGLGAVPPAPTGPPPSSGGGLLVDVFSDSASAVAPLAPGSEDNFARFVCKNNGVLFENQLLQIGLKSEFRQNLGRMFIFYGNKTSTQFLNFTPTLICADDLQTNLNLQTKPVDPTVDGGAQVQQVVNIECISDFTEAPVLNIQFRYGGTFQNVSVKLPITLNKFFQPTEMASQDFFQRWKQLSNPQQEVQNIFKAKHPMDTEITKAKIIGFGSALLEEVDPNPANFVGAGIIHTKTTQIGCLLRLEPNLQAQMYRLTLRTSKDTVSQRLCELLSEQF
HA–hRME-6^wt (human RME-6, full length) (natural protein), sequence (Q14C86 whole entry): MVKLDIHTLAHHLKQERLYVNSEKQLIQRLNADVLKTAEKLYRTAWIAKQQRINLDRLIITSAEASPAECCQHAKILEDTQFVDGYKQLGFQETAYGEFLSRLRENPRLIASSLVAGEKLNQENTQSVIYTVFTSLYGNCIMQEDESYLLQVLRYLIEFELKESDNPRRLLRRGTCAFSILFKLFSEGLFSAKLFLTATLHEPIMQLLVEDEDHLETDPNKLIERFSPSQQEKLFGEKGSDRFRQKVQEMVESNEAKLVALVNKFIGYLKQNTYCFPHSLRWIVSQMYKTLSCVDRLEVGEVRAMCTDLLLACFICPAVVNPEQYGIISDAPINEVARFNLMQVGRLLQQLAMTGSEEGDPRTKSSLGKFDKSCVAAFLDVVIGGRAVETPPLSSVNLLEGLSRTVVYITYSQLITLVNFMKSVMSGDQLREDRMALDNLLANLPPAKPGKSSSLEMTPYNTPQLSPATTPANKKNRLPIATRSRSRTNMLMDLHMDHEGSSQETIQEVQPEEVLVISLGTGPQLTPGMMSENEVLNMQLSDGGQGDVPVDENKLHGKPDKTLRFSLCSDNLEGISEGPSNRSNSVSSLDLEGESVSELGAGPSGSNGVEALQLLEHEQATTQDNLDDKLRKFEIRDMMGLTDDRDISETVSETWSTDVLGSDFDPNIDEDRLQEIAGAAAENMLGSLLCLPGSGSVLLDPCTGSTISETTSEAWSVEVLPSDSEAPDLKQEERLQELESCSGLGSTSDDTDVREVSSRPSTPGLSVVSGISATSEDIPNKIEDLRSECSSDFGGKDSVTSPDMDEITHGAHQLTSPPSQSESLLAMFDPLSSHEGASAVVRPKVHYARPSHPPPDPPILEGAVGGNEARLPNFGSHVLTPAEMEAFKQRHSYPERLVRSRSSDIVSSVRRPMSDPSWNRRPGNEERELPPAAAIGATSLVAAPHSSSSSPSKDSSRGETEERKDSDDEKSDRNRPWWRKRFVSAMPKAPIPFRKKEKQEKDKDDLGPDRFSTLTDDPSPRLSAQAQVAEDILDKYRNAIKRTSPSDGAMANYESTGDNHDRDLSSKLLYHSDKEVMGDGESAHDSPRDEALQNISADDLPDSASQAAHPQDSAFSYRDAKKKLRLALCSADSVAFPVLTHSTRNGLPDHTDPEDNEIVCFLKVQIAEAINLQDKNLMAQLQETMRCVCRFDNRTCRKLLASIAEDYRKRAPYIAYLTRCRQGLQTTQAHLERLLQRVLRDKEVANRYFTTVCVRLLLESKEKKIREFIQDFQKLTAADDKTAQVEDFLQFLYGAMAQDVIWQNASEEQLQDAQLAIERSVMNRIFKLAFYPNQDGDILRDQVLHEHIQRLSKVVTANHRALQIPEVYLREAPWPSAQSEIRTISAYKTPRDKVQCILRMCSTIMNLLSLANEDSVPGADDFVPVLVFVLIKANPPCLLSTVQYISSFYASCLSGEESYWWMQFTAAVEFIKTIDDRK

Substance HA–hRME-6^F1487A (natural protein) showed a fold reduction of binding against hRME-6^wt of 5 fold.

“HA–hRME-6^wt (human RME-6, full length) (natural protein)” yielded a fold reduction of binding against hRME-6 from mock-treated cytosol above 2 fold.
